Data taken from IntAct's records for PubMed 29892012.

B1: E3 ubiquitin-protein ligase LNX (Homo sapiens), Q8TBB1 (parent)
chain: MNQPESANDPEPLCAVCGQAHSLEENHFYSYPEEVDDDLICHICLQALLDPLDTPCGHTYCTLCLTNFLVEKDFCPMDRKPLVLQHCKKSSILVNKLLNKLLVTCPFREHCTQVLQRCDLEHHFQTSCKGASHYGLTKDRKRRSQDGCPDGCASLTATAPSPEVSAAATISLMTDEPGLDNPAYVSSAEDGQPAISPVDSGRSNRTRARPFERSTIRSRSFKKINRALSVLRRTKSGSAVANHADQGRENSENTTAPEVFPRLYHLIPDGEITSIKINRVDPSESLSIRLVGGSETPLVHIIIQHIYRDGVIARDGRLLPGDIILKVNGMDISNVPHNYAVRLLRQPCQVLWLTVMREQKFRSRNNGQAPDAYRPRDDSFHVILNKSSPEEQLGIKLVRKVDEPGVFIFNVLDGGVAYRHGQLEENDRVLAINGHDLRYGSPESAAHLIQASERRVHLVVSRQVRQRSPDIFQEAGWNSNGSWSPGPGERSNTPKPLHPTITCHEKVVNIQKDPGESLGMTVAGGASHREWDLPIYVISVEPGGVISRDGRIKTGDILLNVDGVELTEVSRSEAVALLKRTSSSIVLKALEVKEYEPQEDCSSPAALDSNHNMAPPSDWSPSWVMWLELPRCLYNCKDIVLRRNTAGSLGFCIVGGYEEYNGNKPFFIKSIVEGTPAYNDGRIRCGDILLAVNGRSTSGMIHACLARLLKELKGRITLTIVSWPGTFL
partner: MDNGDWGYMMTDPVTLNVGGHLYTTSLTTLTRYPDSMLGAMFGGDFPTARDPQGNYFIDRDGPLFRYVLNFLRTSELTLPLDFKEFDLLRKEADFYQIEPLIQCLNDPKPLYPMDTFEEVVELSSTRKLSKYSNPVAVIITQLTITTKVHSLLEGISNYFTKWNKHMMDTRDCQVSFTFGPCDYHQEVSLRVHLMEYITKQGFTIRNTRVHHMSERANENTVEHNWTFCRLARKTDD
B2: TBC1 domain family member 22B (Homo sapiens), Q9NU19 (parent)
chain: MAAENSKQFWKRSAKLPGSIQPVYGAQHPPLDPRLTKNFIKERSKVNTVPLKNKKASSFHEFARNTSDAWDIGDDEEEDFSSPSFQTLNSKVALATAAQVLENHSKLRVKPERSQSTTSDVPANYKVIKSSSDAQLSRNSSDTCLRNPLHKQQSLPLRPIIPLVARISDQNASGAPPMTVREKTRLEKFRQLLSSQNTDLDELRKCSWPGVPREVRPITWRLLSGYLPANTERRKLTLQRKREEYFGFIEQYYDSRNEEHHQDTYRQIHIDIPRTNPLIPLFQQPLVQEIFERILFIWAIRHPASGYVQGINDLVTPFFVVFLSEYVEEDVENFDVTNLSQDMLRSIEADSFWCMSKLLDGIQDNYTFAQPGIQKKVKALEELVSRIDEQVHNHFRRYEVEYLQFAFRWMNNLLMRELPLRCTIRLWDTYQSEPEGFSHFHLYVCAAFLIKWRKEILDEEDFQGLLMLLQNLPTIHWGNEEIGLLLAEAYRLKYMFADAPNHYRR
B3: E3 ubiquitin-protein ligase LNX (Homo sapiens), Q8TBB1 (parent)
chain: B1 chain
partner: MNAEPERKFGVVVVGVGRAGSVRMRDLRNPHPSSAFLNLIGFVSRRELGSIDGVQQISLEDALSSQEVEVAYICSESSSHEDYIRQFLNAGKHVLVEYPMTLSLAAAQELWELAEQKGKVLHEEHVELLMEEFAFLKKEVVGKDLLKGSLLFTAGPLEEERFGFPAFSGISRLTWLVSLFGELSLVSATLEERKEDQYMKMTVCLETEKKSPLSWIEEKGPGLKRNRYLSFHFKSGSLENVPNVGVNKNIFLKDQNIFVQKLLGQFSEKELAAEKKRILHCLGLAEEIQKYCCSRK
B4: Zinc finger and BTB domain-containing protein 49 (Homo sapiens), Q6ZSB9 (parent)
chain: MDPVATHSCHLLQQLHEQRIQGLLCDCMLVVKGVCFKAHKNVLAAFSQYFRSLFQNSSSQKNDVFHLDVKNVSGIGQILDFMYTSHLDLNQDNIQVMLDTAQCLQVQNVLSLCHTFLKSATVVQPPGMPCNSTLSLQSTLTPDATCVISENYPPHLLQECSADAQQNKTLDESHPHASPSVNRHHSAGEISKQAPDTSDGSCTELPFKQPNYYYKLRNFYSKQYHKHAAGPSQERVVEQPFAFSTSTDLTTVESQPCAVSHSECILESPEHLPSNFLAQPVNDSAPHPESDATCQQPVKQMRLKKAIHLKKLNFLKSQKYAEQVSEPKSDDGLTKRLESASKNTLEKASSQSAEEKESEEVVSCENFNCISETERPEDPAALEDQSQTLQSQRQYACELCGKPFKHPSNLELHKRSHTGEKPFECNICGKHFSQAGNLQTHLRRHSGEKPYICEICGKRFAASGDVQRHIIIHSGEKPHLCDICGRGFSNFSNLKEHKKTHTADKVFTCDECGKSFNMQRKLVKHRIRHTGERPYSCSACGKCFGGSGDLRRHVRTHTGEKPYTCEICNKCFTRSAVLRRHKKMHCKAGDESPDVLEELSQAIETSDLEKSQSSDSFSQDTSVTLMPVSVKLPVHPVENSVAEFDSHSGGSYCKLRSMIQPHGVSDQEKLSLDPGKLAKPQMQQTQPQAYAYSDVDTPAGGEPLQADGMAMIRSSLAALDNHGGDPLGSRASSTTYRNSEGQFFSSMTLWGLAMKTLQNENELDQ
partner: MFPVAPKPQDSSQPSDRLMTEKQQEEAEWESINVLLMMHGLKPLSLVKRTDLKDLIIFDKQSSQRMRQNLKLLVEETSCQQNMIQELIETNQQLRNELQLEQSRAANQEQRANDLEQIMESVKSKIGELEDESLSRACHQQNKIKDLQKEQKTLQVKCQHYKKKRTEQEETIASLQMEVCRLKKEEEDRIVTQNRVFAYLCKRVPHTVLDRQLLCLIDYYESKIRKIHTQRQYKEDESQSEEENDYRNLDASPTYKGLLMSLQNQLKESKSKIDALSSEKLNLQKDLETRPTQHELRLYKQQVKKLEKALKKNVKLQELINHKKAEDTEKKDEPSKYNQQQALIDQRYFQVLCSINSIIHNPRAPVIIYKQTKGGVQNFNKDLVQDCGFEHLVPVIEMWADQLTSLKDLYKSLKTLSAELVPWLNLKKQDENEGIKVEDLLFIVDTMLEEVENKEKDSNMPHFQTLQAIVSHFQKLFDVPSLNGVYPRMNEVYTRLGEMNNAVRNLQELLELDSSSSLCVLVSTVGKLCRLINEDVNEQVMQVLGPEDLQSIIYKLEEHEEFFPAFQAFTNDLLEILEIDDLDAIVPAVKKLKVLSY

Variants of: B1
Conditions: with kctd6_human KCTD6, Q8NC69

| Variant | effect of a mutation on the interaction |
| --- | --- |
| E295K | disrupting interaction strength |

Variants of: B2
Conditions: with fxr2_human FXR2, P51116
Chain of fxr2_human FXR2, P51116 (P51116 whole entry): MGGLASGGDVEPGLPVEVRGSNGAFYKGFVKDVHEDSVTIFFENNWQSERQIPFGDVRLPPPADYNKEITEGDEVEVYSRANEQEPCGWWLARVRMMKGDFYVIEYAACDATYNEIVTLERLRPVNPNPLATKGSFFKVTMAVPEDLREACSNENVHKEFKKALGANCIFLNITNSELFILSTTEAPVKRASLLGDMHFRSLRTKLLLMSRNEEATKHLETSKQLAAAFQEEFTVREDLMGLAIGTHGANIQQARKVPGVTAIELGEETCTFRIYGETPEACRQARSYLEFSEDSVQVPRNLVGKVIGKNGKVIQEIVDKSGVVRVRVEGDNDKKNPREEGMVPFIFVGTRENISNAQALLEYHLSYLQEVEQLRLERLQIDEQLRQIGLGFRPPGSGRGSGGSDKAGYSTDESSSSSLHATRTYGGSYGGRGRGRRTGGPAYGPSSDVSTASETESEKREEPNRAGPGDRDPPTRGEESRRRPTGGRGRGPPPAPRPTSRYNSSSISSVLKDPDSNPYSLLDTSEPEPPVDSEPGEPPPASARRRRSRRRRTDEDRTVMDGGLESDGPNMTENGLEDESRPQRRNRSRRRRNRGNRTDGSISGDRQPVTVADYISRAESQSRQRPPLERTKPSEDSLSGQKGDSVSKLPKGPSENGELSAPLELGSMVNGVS

| Variant | effect of a mutation on the interaction |
| --- | --- |
| A349T | disrupting interaction strength |

Variants of: B2
Conditions: with ikzf3_human IKZF3, Q9UKT9
Chain of ikzf3_human IKZF3, Q9UKT9 (Q9UKT9 whole entry): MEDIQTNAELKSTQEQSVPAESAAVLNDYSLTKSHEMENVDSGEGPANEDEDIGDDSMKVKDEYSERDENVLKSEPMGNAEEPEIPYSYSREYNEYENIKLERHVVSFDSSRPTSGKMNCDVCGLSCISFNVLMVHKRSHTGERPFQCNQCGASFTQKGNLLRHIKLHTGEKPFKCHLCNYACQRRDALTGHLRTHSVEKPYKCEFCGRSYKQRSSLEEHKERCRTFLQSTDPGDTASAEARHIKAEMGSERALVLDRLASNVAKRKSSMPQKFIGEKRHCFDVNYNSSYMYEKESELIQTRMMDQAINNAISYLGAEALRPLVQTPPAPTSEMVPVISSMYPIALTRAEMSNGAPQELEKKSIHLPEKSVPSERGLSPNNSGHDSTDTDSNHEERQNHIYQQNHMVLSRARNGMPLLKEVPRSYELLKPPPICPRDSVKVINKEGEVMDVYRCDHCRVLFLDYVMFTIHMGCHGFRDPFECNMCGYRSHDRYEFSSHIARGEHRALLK

| Variant | effect of a mutation on the interaction |
| --- | --- |
| A349T | disrupting interaction strength |

Variants of: B2
Conditions: with tacc3_human TACC3, Q9Y6A5

| Variant | effect of a mutation on the interaction |
| --- | --- |
| A349T | disrupting interaction strength |

Variants of: B2
Conditions: with tri23_human TRIM23, P36406
Chain of tri23_human TRIM23, P36406 (P36406 whole entry): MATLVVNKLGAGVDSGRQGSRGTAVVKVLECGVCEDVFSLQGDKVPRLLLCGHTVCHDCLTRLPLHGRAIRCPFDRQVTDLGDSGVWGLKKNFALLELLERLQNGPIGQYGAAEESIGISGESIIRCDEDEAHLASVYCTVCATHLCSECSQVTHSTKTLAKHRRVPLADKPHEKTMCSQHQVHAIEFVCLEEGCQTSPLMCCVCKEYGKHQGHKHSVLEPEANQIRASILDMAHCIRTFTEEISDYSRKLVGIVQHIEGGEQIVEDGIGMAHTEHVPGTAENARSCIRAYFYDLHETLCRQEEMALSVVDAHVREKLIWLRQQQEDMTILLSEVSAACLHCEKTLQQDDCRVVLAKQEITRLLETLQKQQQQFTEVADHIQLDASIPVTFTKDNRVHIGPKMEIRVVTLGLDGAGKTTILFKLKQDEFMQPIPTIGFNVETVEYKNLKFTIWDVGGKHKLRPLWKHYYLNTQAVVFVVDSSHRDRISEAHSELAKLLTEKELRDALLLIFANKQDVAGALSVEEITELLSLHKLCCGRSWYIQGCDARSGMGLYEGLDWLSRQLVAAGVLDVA

| Variant | effect of a mutation on the interaction |
| --- | --- |
| A349T | disrupting interaction strength |

Variants of: B2
Conditions: with pnma5_human PNMA5, Q96PV4
Chain of pnma5_human PNMA5, Q96PV4 (Q96PV4 whole entry): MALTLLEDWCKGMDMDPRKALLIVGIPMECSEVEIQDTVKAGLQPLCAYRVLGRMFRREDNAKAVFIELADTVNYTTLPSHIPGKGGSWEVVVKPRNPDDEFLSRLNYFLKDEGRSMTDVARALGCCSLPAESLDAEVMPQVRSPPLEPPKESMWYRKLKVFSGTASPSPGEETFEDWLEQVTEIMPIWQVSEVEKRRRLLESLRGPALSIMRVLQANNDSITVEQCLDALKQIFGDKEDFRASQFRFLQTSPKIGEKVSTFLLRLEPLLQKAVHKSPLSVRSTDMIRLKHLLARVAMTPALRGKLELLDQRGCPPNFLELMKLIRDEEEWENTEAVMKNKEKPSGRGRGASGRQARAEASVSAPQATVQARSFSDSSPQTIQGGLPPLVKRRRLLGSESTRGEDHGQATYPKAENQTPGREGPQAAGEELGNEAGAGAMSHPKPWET

| Variant | effect of a mutation on the interaction |
| --- | --- |
| A349T | disrupting interaction strength |

Variants of: B3
Conditions: with biea_human BLVRA

| Variant | effect of a mutation on the interaction |
| --- | --- |
| E295K | disrupting interaction strength |

Variants of: B4
Conditions: with cep70_human CEP70, Q8NHQ1

| Variant | effect of a mutation on the interaction |
| --- | --- |
| D88V | with no effect |
